Article PMC12416549 (2024)

T1: TNFR1 (Homo sapiens, UniProt P19438)
T1 chain: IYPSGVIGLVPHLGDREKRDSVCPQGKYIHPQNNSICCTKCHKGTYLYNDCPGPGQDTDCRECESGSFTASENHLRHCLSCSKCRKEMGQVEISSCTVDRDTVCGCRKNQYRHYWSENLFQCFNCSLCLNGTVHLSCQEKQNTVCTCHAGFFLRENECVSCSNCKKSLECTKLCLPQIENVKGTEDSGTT


Molecular target: T1, TNFR1
Assay: yeast display SC50

Row | apparent Kd (screen) [nM] | Binder
1 | 0.446 | E5R (designed binder) SMEERVEKAAKEYEKKKKEAIEKHLEKLKAKDKEAAERFLKELEEAAKEYAKDEAKTMSEEEAKRRAKKYKEKVLLSELSEEEQKEIKEAEEKLVRTILKYVEEAAK
2 | 3.99 | Y50K (designed binder) SMEEEVEKAAKEYEKKKKEAIEKHLEKLKAKDKEAAERFLKELEEAAKEKAKDEAKTMSEEEAKRRAKKYKEKVLLSELSEEEQKEIKEAEEKLVRTILKYVEEAAK
3 | 1.27 | S80Q (designed binder) SMEEEVEKAAKEYEKKKKEAIEKHLEKLKAKDKEAAERFLKELEEAAKEYAKDEAKTMSEEEAKRRAKKYKEKVLLSELQEEEQKEIKEAEEKLVRTILKYVEEAAK
4 | 0.653 | E86N (designed binder) SMEEEVEKAAKEYEKKKKEAIEKHLEKLKAKDKEAAERFLKELEEAAKEYAKDEAKTMSEEEAKRRAKKYKEKVLLSELSEEEQKNIKEAEEKLVRTILKYVEEAAK
5 | 2.48 | K69Y (designed binder) SMEEEVEKAAKEYEKKKKEAIEKHLEKLKAKDKEAAERFLKELEEAAKEYAKDEAKTMSEEEAKRRAKYYKEKVLLSELSEEEQKEIKEAEEKLVRTILKYVEEAAK
6 | 0.539 | E37V (designed binder) SMEEEVEKAAKEYEKKKKEAIEKHLEKLKAKDKEAAVRFLKELEEAAKEYAKDEAKTMSEEEAKRRAKKYKEKVLLSELSEEEQKEIKEAEEKLVRTILKYVEEAAK
7 | 0.869 | K29V (designed binder) SMEEEVEKAAKEYEKKKKEAIEKHLEKLVAKDKEAAERFLKELEEAAKEYAKDEAKTMSEEEAKRRAKKYKEKVLLSELSEEEQKEIKEAEEKLVRTILKYVEEAAK
8 | 1.05 | E4V (designed binder) SMEVEVEKAAKEYEKKKKEAIEKHLEKLKAKDKEAAERFLKELEEAAKEYAKDEAKTMSEEEAKRRAKKYKEKVLLSELSEEEQKEIKEAEEKLVRTILKYVEEAAK
9 | 0.446 | E34F (designed binder) SMEEEVEKAAKEYEKKKKEAIEKHLEKLKAKDKFAAERFLKELEEAAKEYAKDEAKTMSEEEAKRRAKKYKEKVLLSELSEEEQKEIKEAEEKLVRTILKYVEEAAK
10 | 0.49 | E81R (designed binder) SMEEEVEKAAKEYEKKKKEAIEKHLEKLKAKDKEAAERFLKELEEAAKEYAKDEAKTMSEEEAKRRAKKYKEKVLLSELSREEQKEIKEAEEKLVRTILKYVEEAAK
11 | 0.49 | T57I (designed binder) SMEEEVEKAAKEYEKKKKEAIEKHLEKLKAKDKEAAERFLKELEEAAKEYAKDEAKIMSEEEAKRRAKKYKEKVLLSELSEEEQKEIKEAEEKLVRTILKYVEEAAK
12 | 1.86 | E78D (designed binder) SMEEEVEKAAKEYEKKKKEAIEKHLEKLKAKDKEAAERFLKELEEAAKEYAKDEAKTMSEEEAKRRAKKYKEKVLLSDLSEEEQKEIKEAEEKLVRTILKYVEEAAK
13 | 5.84 | R66C (designed binder) SMEEEVEKAAKEYEKKKKEAIEKHLEKLKAKDKEAAERFLKELEEAAKEYAKDEAKTMSEEEAKRCAKKYKEKVLLSELSEEEQKEIKEAEEKLVRTILKYVEEAAK
14 | 7.07 | E91V (designed binder) SMEEEVEKAAKEYEKKKKEAIEKHLEKLKAKDKEAAERFLKELEEAAKEYAKDEAKTMSEEEAKRRAKKYKEKVLLSELSEEEQKEIKEAVEKLVRTILKYVEEAAK
15 | 1.27 | E60D (designed binder) SMEEEVEKAAKEYEKKKKEAIEKHLEKLKAKDKEAAERFLKELEEAAKEYAKDEAKTMSDEEAKRRAKKYKEKVLLSELSEEEQKEIKEAEEKLVRTILKYVEEAAK
16 | 1.86 | E3H (designed binder) SMHEEVEKAAKEYEKKKKEAIEKHLEKLKAKDKEAAERFLKELEEAAKEYAKDEAKTMSEEEAKRRAKKYKEKVLLSELSEEEQKEIKEAEEKLVRTILKYVEEAAK
17 | 0.49 | K23N (designed binder) SMEEEVEKAAKEYEKKKKEAIENHLEKLKAKDKEAAERFLKELEEAAKEYAKDEAKTMSEEEAKRRAKKYKEKVLLSELSEEEQKEIKEAEEKLVRTILKYVEEAAK
18 | 11.4 | E14T (designed binder) SMEEEVEKAAKEYTKKKKEAIEKHLEKLKAKDKEAAERFLKELEEAAKEYAKDEAKTMSEEEAKRRAKKYKEKVLLSELSEEEQKEIKEAEEKLVRTILKYVEEAAK
19 | 0.446 | E62D (designed binder) SMEEEVEKAAKEYEKKKKEAIEKHLEKLKAKDKEAAERFLKELEEAAKEYAKDEAKTMSEEDAKRRAKKYKEKVLLSELSEEEQKEIKEAEEKLVRTILKYVEEAAK
20 | 13.8 | K73N (designed binder) SMEEEVEKAAKEYEKKKKEAIEKHLEKLKAKDKEAAERFLKELEEAAKEYAKDEAKTMSEEEAKRRAKKYKENVLLSELSEEEQKEIKEAEEKLVRTILKYVEEAAK
21 | 0.208 | V102Q (designed binder) SMEEEVEKAAKEYEKKKKEAIEKHLEKLKAKDKEAAERFLKELEEAAKEYAKDEAKTMSEEEAKRRAKKYKEKVLLSELSEEEQKEIKEAEEKLVRTILKYQEEAAK
22 | 0.446 | K23Q (designed binder) SMEEEVEKAAKEYEKKKKEAIEQHLEKLKAKDKEAAERFLKELEEAAKEYAKDEAKTMSEEEAKRRAKKYKEKVLLSELSEEEQKEIKEAEEKLVRTILKYVEEAAK
23 | 5.31 | E14R (designed binder) SMEEEVEKAAKEYRKKKKEAIEKHLEKLKAKDKEAAERFLKELEEAAKEYAKDEAKTMSEEEAKRRAKKYKEKVLLSELSEEEQKEIKEAEEKLVRTILKYVEEAAK
24 | 1.54 | E12W (designed binder) SMEEEVEKAAKWYEKKKKEAIEKHLEKLKAKDKEAAERFLKELEEAAKEYAKDEAKTMSEEEAKRRAKKYKEKVLLSELSEEEQKEIKEAEEKLVRTILKYVEEAAK
25 | 0.869 | S1R (designed binder) RMEEEVEKAAKEYEKKKKEAIEKHLEKLKAKDKEAAERFLKELEEAAKEYAKDEAKTMSEEEAKRRAKKYKEKVLLSELSEEEQKEIKEAEEKLVRTILKYVEEAAK
26 | 0.0802 | Y50I (designed binder) SMEEEVEKAAKEYEKKKKEAIEKHLEKLKAKDKEAAERFLKELEEAAKEIAKDEAKTMSEEEAKRRAKKYKEKVLLSELSEEEQKEIKEAEEKLVRTILKYVEEAAK
